Laboratory results from US6096512A, “Cloned DNA encoding a UDP-GalNAc: Polypeptide, N-acetylgalactosaminyltransferase” (Pharmacia & Upjohn Company, priority 1997, dated 2000).
“Also recorded” adds a separate entry of the source.

T1: bovine colostrum GalNAc-transferase (Bos taurus, UniProt Q07537)
T1 sequence (Q07537 41-559): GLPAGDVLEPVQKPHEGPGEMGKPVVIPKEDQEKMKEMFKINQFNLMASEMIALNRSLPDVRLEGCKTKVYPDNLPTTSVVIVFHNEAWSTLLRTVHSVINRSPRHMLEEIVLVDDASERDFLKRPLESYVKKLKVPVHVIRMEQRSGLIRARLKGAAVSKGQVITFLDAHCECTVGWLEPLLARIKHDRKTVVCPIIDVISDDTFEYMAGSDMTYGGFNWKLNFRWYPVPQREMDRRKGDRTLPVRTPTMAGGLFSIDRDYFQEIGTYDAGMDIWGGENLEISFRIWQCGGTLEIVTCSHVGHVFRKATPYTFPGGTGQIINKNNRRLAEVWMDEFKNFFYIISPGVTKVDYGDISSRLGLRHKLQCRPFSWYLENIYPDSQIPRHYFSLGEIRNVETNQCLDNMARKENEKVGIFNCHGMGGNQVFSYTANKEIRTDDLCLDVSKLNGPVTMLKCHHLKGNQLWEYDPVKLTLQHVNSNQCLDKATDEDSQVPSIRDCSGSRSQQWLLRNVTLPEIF

B1: GalNAcT 2-1.A: baculovirus isolate of the full length GalNAc-transferase gene (pAC373-GalNAcT) expressed in Sf9 cells (protein)
chain: MRKFAYCKVVLATSLIWVLLDMFLLLYFSECNKCDEKKERGLPAGDVLEPVQKPHEGPGEMGKPVVIPKEDQEKMKEMFKINQFNLMASEMIALNRSLPDVRLEGCKTKVYPDNLPTTSVVIVFHNEAWSTLLRTVHSVINRSPRHMLEEIVLVDDASERDFLKRPLESYVKKLKVPVHVIRMEQRSGLIRARLKGAAVSKGQVITFLDAHCECTVGWLEPLLARIKHDRKTVVCPIIDVISDDTFEYMAGSDMTYGGFNWKLNFRWYPVPQREMDRRKGDRTLPVRTPTMAGGLFSIDRDYFQEIGTYDAGMDIWGGENLEISFRIWQCGGTLEIVTCSHVGHVFRKATPYTFPGGTGQIINKNNRRLAEVWMDEFKNFFYIISPGVTKVDYGDISSRLGLRHKLQCRPFSWYLENIYPDSQIPRHYFSLGEIRNVETNQCLDNMARKENEKVGIFNCHGMGGNQVFSYTANKEIRTDDLCLDVSKLNGPVTMLKCHHLKGNQLWEYDPVKLTLQHVNSNQCLDKATDEDSQVPSIRDCSGSRSQQWLLRNVTLPEIF
B2: GalNAcT 2-1.B: baculovirus isolate of the full length GalNAc-transferase gene (pAC373-GalNAcT) expressed in Sf9 cells (protein)
chain: B1 chain
B3: Myelin basic protein: efficient acceptor for GalNAc-transferase, included as a positive control (protein, UniProt P02686 1-304, looked up)
Myelin basic protein: MGNHAGKRELNAEKASTNSETNRGESEKKRNLGELSRTTSEDNEVFGEADANQNNGTSSQDTAVTDSKRTADPKNAWQDAHPADPGSRPHLIRLFSRDAPGREDNTFKDRPSESDELQTIQEDSAATSESLDVMASQKRPSQRHGSKYLATASTMDHARHGFLPRHRDTGILDSIGRFFGGDRGAPKRGSGKDSHHPARTAHYGSLPQKSHGRTQDENPVVHFFKNIVTPRTPPPSQGKGRGLSLSRFSWGAEGQRPGFGYGGRASDYKSAHKGFKGVDAQGTLSKIFKLGGRDSRSGSPMARR
B4: Subtilisin: bacterial protein produced by a microbial system incapable of O-linked oligosaccharide biosynthesis (protein, UniProt P00782 108-382, looked up)
Subtilisin BPN': AQSVPYGVSQIKAPALHSQGYTGSNVKVAVIDSGIDSSHPDLKVAGGASMVPSETNPFQDNNSHGTHVAGTVAALNNSIGVLGVAPSASLYAVKVLGADGSGQYSWIINGIEWAIANNMDVINMSLGGPSGSAALKAAVDKAVASGVVVVAAAGNEGTSGSSSTVGYPGKYPSVIAVGAVDSSNQRASFSSVGPELDVMAPGVSIQSTLPGNKYGAYNGTSMASPHVAGAAALILSKHPNWTNTQVRSSLENTTTKLGDSFYYGKGLINVQAAAQ
B5: GalNAcT-Mel: recombinant baculovirus that expresses a secreted form of GalNAc-transferase with honeybee melittin signal peptide (protein)
chain: DPSPALEPVQKPHEGPGEMGKPVVIPKEDQEKMKEMFKINQFNLMASEMIALNRSLPDVRLEGCKTKVYPDNLPTTSVVIVFHNEAWSTLLRTVHSVINRSPRHMLEEIVLVDDASERDFLKRPLESYVKKLKVPVHVIRMEQRSGLIRARLKGAAVSKGQVITFLDAHCECTVGWLEPLLARIKHDRKTVVCPIIDVISDDTFEYMAGSDMTYGGFNWKLNFRWYPVPQREMDRRKGDRTLPVRTPTMAGGLFSIDRDYFQEIGTYDAGMDIWGGENLEISFRIWQCGGTLEIVTCSHVGHVFRKATPYTFPGGTGQIINKNNRRLAEVWMDEFKNFFYIISPGVTKVDYGDISSRLGLRHKLQCRPFSWYLENIYPDSQIPRHYFSLGEIRNVETNQCLDNMARKENEKVGIFNCHGMGGNQVFSYTANKEIRTDDLCLDVSKLNGPVTMLKCHHLKGNQLWEYDPVKLTLQHVNSNQCLDKATDEDSQVPSIRDCSGSRSQQWLLRNVTLPEIF
B6: Bovine rhodanese: cytoplasmic protein containing three strong predicted glycosylation sites (protein)
chain: VHQVLYRALVSTKWLAESVRAGKVGPGLRVLDASWYSPGTREARKEYLERHVPGASFFDIEECRDKASPYEVMLPSEAGFADYVGSLGISNDTHVVVYDGDDLGSFYAPRVWWMFRVFGHRTVSVLNGGFRNWLKEGHPVTSEPSRPEPAIFKATLNRSLLKTYEQVLENLESKRFQLVDSRAQGRYLGTQPEPDAVGLDSGHIRGSVNMPFMNFLTEDGFEKSPEELRAMFEAKKVDLTKPLIATCRKGVTACHIALAAYLCGKPDVAIYDGSWFEWFHRAPPETWVSQGKGGKA

Legend:
[1] = system: GalNAc-transferase activity in Sf9 cells; experiment: Expression of baculovirus isolates of the GalNAc-transferase in Sf9 cells, GalNAcT activity; format: cell-based, Spodoptera frugiperda; settings: for Specific activity: Sf9 cell lysates, 48 hours post infection; for Relative rate: relative to uninfected cells
Method: (§1) The standard assay for UDP-GalNAc:polypeptide, N-acetylgalactosaminyltransferase activity during purification contained the following components in a final volume of 80 μl: 50 mM Imidazole pH 7.2, 10 mM MnCl2, 0.5% Triton X-100, 15 μM UDP-GalNAc, UDP[1-^3 H-] GalNAc (27,000 cpm/assay), 0.15 mg/ml apomucin and varying amounts of enzyme (see individual experiments). The reaction mixture is incubated at 37° C. for 5-10 minutes (see individual experiments) and the reaction product is TCA precipitated and radioactivity measured as described. Assays for activity in lysates from Spodoptera frugiperda cell line 9 (hereinafter referred to as Sf9 cells) are carried out as described by Thomsen et al., (1990).
The putative GalNAcT coding region, pCR1000-91B, is digested with SstII and HindIII (both enzymes cut only in pCR1000 sequences that flank the insert; FIG. 2C) and these sites are blunted using T4 DNA polymerase so that it can be cloned into a baculovirus expression vector. BamHI linkers are then ligated onto the blunted ends and the resulting sample is ligated into the BamHI site of the baculovirus expression vector pAC373 (Summers and Smith, 1986). The resulting isolates are screened for proper orientation of the GalNAcT open reading frame with respect to the baculovirus polyhedron promoter, to yield pAC373-GalNAcT. Cotransfection of Sf9 cells with pAC373-GaINAcT and linearized baculovirus DNA from PharMingen's baculoGold transfection kit is performed using calcium phosphate precipitation (Summers & Smith, 1986). The baculovirus DNA provided in the PharMingen transfection kit contains a lethal mutation that can be corrected by homologous recombination with sequences contained in the pAC373 vector. Therefore, following transfection, only recombinant viruses will grow on Sf9 cells. Transfections are done in duplicate and the resulting virus samples are referred to as GalNAcT 2-1A and GaINAcT 2-1B. Cells are harvested 48 hours post infection and lysed in a detergent containing buffer. Following sedimentation of undissolved material, the cleared lysates are assayed for GalNAcT activity. Lysates from uninfected cells or from cells infected with either a baculovirus containing an unrelated gene, CMV-POL (human cytomegalovirus DNA polymerase gene), or two separate baculovirus isolates of the GaINAcT gene, GalNAcT 2-1A and GaINAcT 2-1B, are assayed.

[2] = system: GalNAc-transferase activity in Sf9 cells; experiment: Expression of baculovirus isolates of soluble GalNAc-transferase in Sf9 cells, total activity; format: cell-based, Spodoptera frugiperda; settings: for Total activity, cell lysate / Total activity, culture medium: 65 hours post infection; for Total activity, cell lysate: 1X10^6 cells; for Total activity, culture medium: culture medium volume 5 ml
Method: GalNAcTs was routinely expressed in one liter batches. Approximately 1×10^9 cells in one liter Grace's serum-free insect medium (Insect Express) were infected with 5 pfu/cell of GalNAcTs-Mel. The infected cells were cultured in shaker flasks for 65 hours before harvest.
^a 1 unit equals one mole Nacetylgalactosamine transferred to apomuci
per minute, under assay conditions.
Cells (1X10^6) were infected with recombinant virus containing GalNAcTs-Mel (5 pfu/cell). The cells were harvestd 65 hours post infrction, lysed in a detergent containing buffer and the GalNac-transferase activity was determined in the cell lysates and the corresponding culture media; lysate and culture medium from uninfected cells were assayed as control. The numbers have been adjusted for differences in protein content in the cell lysates; the volume of the culture media was 5 ml.

[3] = biological target: T1, bovine colostrum GalNAc-transferase; experiment: Transfer of N-acetylgalactosamine to protein acceptors by bovine colostrum GalNAc-transferase; format: biochemical; settings: for Product formed, native acceptor / Product formed, reduced and carboxymethylated acceptor: acceptor 65 μM, enzyme approximately 65 mU/ml, 60 minutes; for Product formed, reduced and carboxymethylated acceptor: myelin basic protein was not reduced and carboxymethylated; for acceptor activity in words: native or reduced and carboxymethylated
Method: as §1
The above conclusions and the predictions of the specificity algorithm are validated experimentally by studying the ability of bovine colostrum GalNAc-transferase to transfer N-acetylgalactosamine to a variety of acceptors, both native proteins and synthetic acceptor peptides. The transfer of N-acetylgalactosamine to protein acceptors is assayed as described by Elhammer and Kornfeld, 1986, with minor modifications. The concentration of UDP-GalNAc is saturating in all assays; a Km of 8 μM is reported for bovine colostrum GalNAc-transferase (Elhammer and Kornfeld, 1986).
The transfer of N-acetylgalactosamine to protein acceptors was assayed
under standard conditions (see Material and Methods). The acceptor
concentration was 65 μM, the enzyme concentration approximately
65 mU/ml and assay time was 60 minutes. The transfer to both native and
reduced-carboxymethylated acceptors was assayed.

[4] = biological target: T1, bovine colostrum GalNAc-transferase; settings: Cruz and Moscarello, 1983; cited from earlier work

Molecule	Specific activity [1] [Units/mg protein]	Relative rate [1]	Total activity, cell lysate [2] [U]	Total activity, culture medium [2] [U]	Product formed, native acceptor [3] [nmol/min/mg]	Product formed, reduced and carboxymethylated acceptor [3] [nmol/min/mg]	also measured
B1	13.9	87	16.22	1.61			
B2	11.9	74					
B3					22.2	21.3	N-acetylgalactosamines per molecule [4]: 1.2 to 1.5 N-acetylgalactosamines per molecule
B4					< 0.1	0.6	transfer rate slower than to myelin basic protein ([3]; denatured subtilisin vs myelin basic protein): 35 times; acceptor activity in words [3]: neither of them reacts unless reduced and carboxymethylated; also recorded: neither subtilisin nor rhodanese showed any acceptor activity without prior reduction and carboxymethylation
B5			32.15	57.80			portion of total enzymatic activity retained inside the cells [2]: 36%; activity in medium relative to cells expressing the full length molecule ([2]; culture medium): more than 35 times; increase in GalNAc-transferase activity in the culture medium ([2]; vs uninfected cells): 130 fold
B6					< 0.1	3.3	acceptor activity in words ([3]; listed as bovine rhodanese): neither of them reacts unless reduced and carboxymethylated; acceptor activity in words ([3]; listed as rhodanese): neither subtilisin nor rhodanese showed any acceptor activity without prior reduction and carboxymethylation
